Consider one substance from patent publication US6528295.

The target in this assay is Protein Phosphatase Methylesterase-1 (PME-1), endogenous protein of NIH3T3 cells (mouse) (UniProt Q8BVQ5). In words: anti-HA co-immunoprecipitation, silver-stained 2D gel.
Protein Phosphatase Methylesterase-1 (PME-1), endogenous protein of NIH3T3 cells (mouse), sequence (Q8BVQ5 whole entry): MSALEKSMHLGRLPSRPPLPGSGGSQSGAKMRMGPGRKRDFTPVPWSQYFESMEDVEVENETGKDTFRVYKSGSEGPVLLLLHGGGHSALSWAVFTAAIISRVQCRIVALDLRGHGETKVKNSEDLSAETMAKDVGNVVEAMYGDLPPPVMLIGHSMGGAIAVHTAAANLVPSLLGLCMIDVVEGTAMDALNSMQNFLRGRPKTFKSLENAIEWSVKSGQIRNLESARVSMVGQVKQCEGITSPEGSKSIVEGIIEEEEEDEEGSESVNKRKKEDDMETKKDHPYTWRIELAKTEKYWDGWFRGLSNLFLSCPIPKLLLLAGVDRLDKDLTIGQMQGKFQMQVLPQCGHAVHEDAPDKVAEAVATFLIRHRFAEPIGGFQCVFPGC

In the case of “HA-tagged PP2A C subunit mutant H118Q (from UniProt P67775 1-309) (enzyme)”, the stoichiometry of PME-1 to the A and C subunits in the immunoprecipitate stood at 1.
